We go through 9 molecules from patent publication US20170088632A1 (OMEROS, published 2017).

Experiment [1] concerns the target T1, human MASP-2A (catalytically inactive human MASP-2, Ser618 to Ala618) (human, UniProt O00187 16-686).
T1 construct: the ELISA and Biacore methods say only 'MASP-2A', so a tag may have been present; also called huMASP2A; huMASP-2A
Description: ELISA, purified scFv titrated on physically adsorbed human MASP-2A.

For experiment [2], the target named is T2, human MASP-2 (human, UniProt O00187 16-686).
T2 construct: also called hMASP-2; recombinant human MASP-2
T2 sequence (O00187 16-686): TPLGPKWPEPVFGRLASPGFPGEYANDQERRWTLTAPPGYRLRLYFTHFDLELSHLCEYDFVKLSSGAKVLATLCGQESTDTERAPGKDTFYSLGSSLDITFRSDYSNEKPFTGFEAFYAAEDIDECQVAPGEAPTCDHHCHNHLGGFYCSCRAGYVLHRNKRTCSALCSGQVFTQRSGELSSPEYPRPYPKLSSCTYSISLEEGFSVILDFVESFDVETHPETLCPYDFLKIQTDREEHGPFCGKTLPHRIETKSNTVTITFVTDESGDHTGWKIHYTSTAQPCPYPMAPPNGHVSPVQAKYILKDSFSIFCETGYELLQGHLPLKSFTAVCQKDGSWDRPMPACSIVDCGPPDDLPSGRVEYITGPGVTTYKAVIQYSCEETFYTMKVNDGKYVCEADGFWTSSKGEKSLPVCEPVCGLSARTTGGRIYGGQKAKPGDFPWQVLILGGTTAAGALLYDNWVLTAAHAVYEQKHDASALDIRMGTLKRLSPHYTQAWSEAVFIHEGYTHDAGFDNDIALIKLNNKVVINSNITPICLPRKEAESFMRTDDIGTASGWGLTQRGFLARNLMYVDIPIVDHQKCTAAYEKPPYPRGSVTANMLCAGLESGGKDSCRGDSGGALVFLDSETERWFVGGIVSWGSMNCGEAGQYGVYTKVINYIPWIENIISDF
Description: titration ELISA on MASP-2 (10 µg/ml).

Experiment [3] has as its target T2, human MASP-2. Description: cell-based or functional assay.
Experiment [4] addresses T1, human MASP-2A (catalytically inactive …). Description: titration ELISA on coated human MASP-2A ('Binding affinity'), IgG4 mutated format. Here is the method:
(§1) The clones were then purified and re-tested in an ELISA and activity assay as follows. Human MASP-2A was coated at 3 μg/ml in PBS on a maxisorp plate, IgG (45 μg/ml) and Fab′2 (30 μg/ml) were diluted in PBS-Tween to a starting concentration of 300 nM, and further with 3-fold dilutions. IgGs were detected with HRP conjugated Goat α-Human IgG (Southern Biotech) and the F(ab′)2 were detected with HRP-conjugated Goat α-Human IgG H+L (Pierce 31412). The reaction was developed with TMB substrate and stopped with 2M H₂SO₄.
For orientation: An ELISA detects its analyte on a solid surface through an enzyme-linked reagent.

Experiment [5] has the same target. Description: titration ELISA on coated human MASP-2A ('Binding affinity'), F(ab′)2. As for the experimental part: as §1
In experiment [6] the target is T2, human MASP-2. Description: cell-based or functional assay. The source holds these as a separate data set.
Experiment [7] deals with T2, human MASP-2. Description: cell-based or functional assay. The source holds these as a separate data set.
The target in experiment [8] is T2, human MASP-2. Description: cell-based or functional assay. The source holds these as a separate data set.
Experiment [9] addresses T3, rat MASP-2 (in rat serum) (rat, UniProt Q9JJS8 20-685). Description: cell-based or functional assay.
Experiment [10] concerns the target T2, human MASP-2. Description: selectivity for human MASP-2 over C1s (method not detailed; see FIG. 16).
Experiment [11] addresses T2, human MASP-2. Description: cell-based or functional assay. This is another data set of the same source.
The target of experiment [12] is T4, African Green monkey MASP-2 (in African Green monkey serum) (African Green monkey). Description: cell-based or functional assay.
The target in experiment [13] is T2, human MASP-2. Description: cell-based or functional assay. This is another data set of the same source.
The target of experiment [14] is T3, rat MASP-2 (in rat serum). Description: cell-based or functional assay. This is another data set of the same source.
Experiment [15] has as its target T4, African Green monkey MASP-2 (in African …). Description: cell-based or functional assay. This is another data set of the same source.
For experiment [16], the target named is T2, human MASP-2. Description: cell-based or functional assay. This is another data set of the same source.
The target of experiment [17] is T4, African Green monkey MASP-2 (in African …). Description: cell-based or functional assay. This is another data set of the same source.
Experiment [18] addresses T2, human MASP-2. Description: cell-based or functional assay. This is another data set of the same source.
The target of experiment [19] is T1, human MASP-2A (catalytically inactive …). Description: SPR (Biacore), scFv captured by anti-cMyc antibody, MASP-2A in solution. (Surface plasmon resonance follows binding to a sensor surface in real time, without labels.)
The target is the same in experiment [20]. Description: SPR (Biacore), MASP-2A amine coupled to CM5 chip, scFv monomer in solution.

For orientation: EC50 (read off the curve) means the concentration that produces a half-maximal response. As a reminder, the Kd is the free concentration of one partner at which half of the binding sites on the other are occupied at equilibrium, for simple one-to-one binding.

Several values for one entry are separate records, joined by “and”; a condition that tells them apart may be missing. Identical values can stand only once.

T3 sequence (Q9JJS8 other isoform, or with tags, fused parts or gaps limits assumed): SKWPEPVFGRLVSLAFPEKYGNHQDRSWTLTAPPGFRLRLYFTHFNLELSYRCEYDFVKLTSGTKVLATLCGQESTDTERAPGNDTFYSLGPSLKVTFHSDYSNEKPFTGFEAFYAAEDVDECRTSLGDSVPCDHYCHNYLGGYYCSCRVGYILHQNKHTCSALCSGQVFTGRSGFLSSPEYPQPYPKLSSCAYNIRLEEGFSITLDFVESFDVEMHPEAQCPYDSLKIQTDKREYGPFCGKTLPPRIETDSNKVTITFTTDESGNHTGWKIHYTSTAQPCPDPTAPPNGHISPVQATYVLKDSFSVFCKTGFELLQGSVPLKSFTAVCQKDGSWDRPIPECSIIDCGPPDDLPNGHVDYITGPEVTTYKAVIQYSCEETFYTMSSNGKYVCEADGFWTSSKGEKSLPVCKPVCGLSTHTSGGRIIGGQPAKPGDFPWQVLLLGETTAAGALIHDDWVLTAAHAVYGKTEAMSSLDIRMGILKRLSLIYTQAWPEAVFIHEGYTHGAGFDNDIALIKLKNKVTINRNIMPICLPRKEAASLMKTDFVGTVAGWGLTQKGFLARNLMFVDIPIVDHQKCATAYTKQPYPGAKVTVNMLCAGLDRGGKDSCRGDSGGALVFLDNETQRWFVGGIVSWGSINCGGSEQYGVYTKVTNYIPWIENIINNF
T1 sequence (O00187 16-686 S633A): as the sequence (O00187 16-686) above, with S618A counted along it

B1: scFv daughter clone 17D20m_d21N11 (scFv)
scFv: QVTLKESGPVLVKPTETLTLTCTVSGFSLSRGKMGVSWIRQPPGKALEWLAHIFSSDEKSYRTSLKSRLTISKDTSKNQVVLTMTNMDPVDTATYYCARIRAGGIDYWGQGTLVTVSSKLSGSASAPKLEEGEFSEARVQPVLTQPPSLSVSPGQTASITCSGEKLGDKYAYWYQQKPGQSPVLVMYQDKQRPSGIPERFSGSNSGNTATLTISGTQAMDEADYYCQAWDSSTAVFGGGTKLTVL
B1: in experiment [1], the “EC50 (read off the curve)” value was ~3 nM. Besides, the Kd with human MASP-2 [2] is 10 nM. For the same molecule, in the experiment with human MASP-2 [3], the “1% human serum C3 assay IC50” value is 360 nM and the “90% human serum C4 assay IC50” value is ~500 nM.

B2: 17N16 mother clone, IgG4 hinge mutant (S228P) format (antibody, V domains shown)
VH: QVQLQQSGPGLVKPSQTLSLTCAISGDSVSSTSAAWNWIRQSPSRGLEWLGRTYYRSKWYNDYAVSVKSRITINPDTSKNQFSLQLNSVTPEDTAVYYCARDPFGVPFDIWGQGTMVTVSS
VL: SYVLTQPPSVSVAPGQTARITCGGNNIGSKNVHWYQQKPGQAPVLVVYDDSDRPSGIPERFSGSNSGNTATLTVSRVEAGDEADYYCQVWDTTTDHVVFGGGTKLTVL
notes: IgG4 S228P; also called 17N16 IgG4 mutated format
For the molecule B2, the affinity in [4], expressed as Kd, was 0.0206 nM.

B3: 17N16 mother clone, F(ab′)2 format (Fab, V domains shown)
VH: B2 VH
VL: B2 VL
notes: also called 17N16 F(ab′)2
On to B3, for which the Kd in experiment [5] stood at 0.0959 nM.

B4: 17D20 mother clone, IgG4 hinge mutant (S228P) format (antibody, V domains shown)
VH: QVTLKESGPVLVKPTETLTLTCTVSGFSLSRGKMGVSWIRQPPGKALEWLAHIFSSDEKSYRTSLKSRLTISKDTSKNQVVLTMTNMDPVDTATYYCARIRAGGIDYWGQGTLVTVSS
VL: QPVLTQPPSVSVSPGQTASITCSGDKLGDKFAYWYQQKPGHSPVLVIYQDNKRPSGIPGRFSGSNSGNTATLTISGTQAMDEADYYCQAWDSSTAVFGTGTKVTVLA
notes: IgG4 S228P; also called 17D20 IgG4 mutated format; 17D20 IgG4 S228P
With B4, in the experiment with human MASP-2 [6], the “C4b deposition in 90% human serum, IC50 relative to the C3b deposition assay” value was ~3 fold. The “C3b deposition assay in 1% human serum, IC50” value with human MASP-2 [7] is 11 nM and 27 nM. This molecule also registered a Kd in [4] of 0.0284 nM.

B5: 17D20 mother clone, F(ab′)2 format (Fab, V domains shown)
VH: B4 VH
VL: B4 VL
notes: also called 17D20 F(ab′)2
Take B5: in [5], the Kd came out at 0.181 nM. Also, in the experiment with human MASP-2 [8], the “C3 convertase assay using 1% human serum, IC50 (first experiment)” value stood at 7.3 nM and the “C3 convertase assay using 1% human serum, IC50 (second experiment)” value is 13.5 nM.

B6: MoAb #2 (OMS642), 17N16m_d17N9 IgG4 (antibody)
heavy: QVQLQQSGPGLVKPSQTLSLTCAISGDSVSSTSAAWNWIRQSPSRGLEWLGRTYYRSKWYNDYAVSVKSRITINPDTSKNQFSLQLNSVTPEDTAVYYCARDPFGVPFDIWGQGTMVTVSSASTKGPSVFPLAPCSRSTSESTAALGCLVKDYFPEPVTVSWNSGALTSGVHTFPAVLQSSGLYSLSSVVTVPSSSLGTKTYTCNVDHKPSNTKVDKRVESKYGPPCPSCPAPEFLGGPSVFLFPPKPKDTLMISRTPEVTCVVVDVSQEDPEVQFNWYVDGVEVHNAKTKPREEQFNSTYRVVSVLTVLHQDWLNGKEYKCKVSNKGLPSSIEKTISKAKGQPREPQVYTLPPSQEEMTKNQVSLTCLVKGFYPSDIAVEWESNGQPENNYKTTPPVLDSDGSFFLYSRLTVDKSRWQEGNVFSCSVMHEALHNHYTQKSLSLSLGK
light: SYELIQPPSVSVAPGQTATITCAGDNLGKKRVHWYQQRPGQAPVLVIYDDSDRPSGIPDRFSASNSGNTATLTITRGEAGDEADYYCQVWDIATDHVVFGGGTKLTVLGQPKAAPSVTLFPPSSEELQANKATLVCLISDFYPGAVTVAWKADSSPVKAGVETTTPSKQSNNKYAASSYLSLTPEQWKSHRSYSCQVTHEGSTVEKTVAPTECS
notes: also called MoAb#2 (IgG4)
Regarding B6, the “Inhibition of Rat C3b IC50” value in [9] turned out to be 100 nM. Moreover, in the experiment with human MASP-2 [10], the “Selectivity over C1s” value was > 5000 fold. Besides, in the experiment with human MASP-2 [11], the “Human C3 Assay IC50, 90% human serum” value was 3 nM and the “Human C4 assay IC50, 90% human serum” value turned out to be 30 nM. Besides, the “African Green Monkey C3 assay IC50” value in experiment [12] is 26 nM.

B7: MoAb #3 (OMS643), 17N16m_d17N9 IgG4 (mutant, S228P) (antibody)
heavy: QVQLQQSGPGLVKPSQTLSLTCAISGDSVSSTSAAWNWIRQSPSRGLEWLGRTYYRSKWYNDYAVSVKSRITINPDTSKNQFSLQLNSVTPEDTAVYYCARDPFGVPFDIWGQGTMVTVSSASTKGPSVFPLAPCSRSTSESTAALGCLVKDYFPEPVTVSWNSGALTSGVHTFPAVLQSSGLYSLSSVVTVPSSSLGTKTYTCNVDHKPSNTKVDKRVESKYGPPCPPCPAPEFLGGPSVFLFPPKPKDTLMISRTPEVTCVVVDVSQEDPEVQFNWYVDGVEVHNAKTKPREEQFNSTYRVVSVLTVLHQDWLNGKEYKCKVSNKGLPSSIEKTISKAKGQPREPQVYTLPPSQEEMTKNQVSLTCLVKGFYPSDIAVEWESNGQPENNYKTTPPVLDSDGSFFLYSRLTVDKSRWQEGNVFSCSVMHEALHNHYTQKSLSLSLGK
light: B6 light
notes: also called MoAb#3 (IgG4 mutant)
For the molecule B7, in experiment [9], the “Inhibition of Rat C3b IC50” value came out at 200 nM. Further, the “Selectivity over C1s” value in the experiment with human MASP-2 [10] was > 5000 fold. For the same molecule, in the experiment with human MASP-2 [11], the “Human C3 Assay IC50, 90% human serum” value amounted to 12 nM and the “Human C4 assay IC50, 90% human serum” value amounted to 30 nM.

B8: scFv mother clone 17L20 (scFv)
scFv: EVQLQQSGPGLVKPSQTLSLTCAISGDSVSSKRAAWDWIRQSPSRGLEWLGRTYYRSKWFNDYAISVKSRITINADTSRNQFSLQLNSVTPEDTAVYYCVKSNSGTGAFDSWGQGTLVTVSSKLSGSASAPKLEEGEFSEARVQPGLTQPPSVSVSPGQTARITCSRDKLGDKYVSWYQQKPGQSPVVVMYKDNKRPSGIPERFSGSNSGNTATLTISGTQAMDEADYYCQAWDSSTAGVFGGGTKLTVLAAAGSEQKLISEEDLNSHHHHHH
For B8, in the experiment with human MASP-2 [13], the “Functional IC50, C3b deposition, human serum Exp #2” value was 104 nM; the “Functional IC50, C3b deposition, human serum Exp #3” value was 308 nM; the “Functional IC50, C3b deposition, human serum Exp #4” value came out at 199 nM. For the same molecule, the “Functional IC50, C3b deposition, rat serum Exp #1” value in experiment [14] is 41 nM. The “Functional IC50, C3b deposition, non-human primate serum Exp #2” value in experiment [15] turned out to be 71.7 nM.

B9: scFv mother clone 17D20 (scFv)
scFv: QVTLKESGPVLVKPTETLTLTCTVSGFSLSRGKMGVSWIRQPPGKALEWLAHIFSSDEKSYRTSLKSRLTISKDTSKNQVVLTMTNMDPVDTATYYCARIRAGGIDYWGQGTLVTVSSKLSGSASAPKLEEGEFSEARVQPVLTQPPSVSVSPGQTASITCSGDKLGDKFAYWYQQKPGHSPVLVIYQDNKRPSGIPGRFSGSNSGNTATLTISGTQAMDEADYYCQAWDSSTAVFGTGTKVTVLAAAGSEQKLISEEDLNSHHHHHH
notes: also called 17D20 (17P10); 17D20mc
As for B9, in the experiment with human MASP-2 [16], the “C3 Assay IC50 in dilute serum (1%), human serum Exp #1” value amounted to 24 nM; the “C3 Assay IC50 in dilute serum (1%), human serum Exp #2” value is 24 nM; the “C3 Assay IC50 in dilute serum (1%), human serum Exp #3” value is 40 nM; the “C3 Assay IC50 in dilute serum (1%), human serum mean” value worked out at 29 nM. Further, in experiment [17], the “C3 Assay IC50, non-human primate serum Exp #1” value came out at 94 nM; the “C3 Assay IC50, non-human primate serum Exp #2” value was determined as 74 nM; the “C3 Assay IC50, non-human primate serum mean” value was determined as 84 nM. Also, the “Inhibitory activity in Human Serum IC50 (C3b deposition, 0.5% human serum)” value in the experiment with human MASP-2 [18] amounted to 157 nM. The affinity in experiment [19], expressed as Kd, was 0.76 nM. In addition, in the experiment with human MASP-2 [13], the “Functional IC50, C3b deposition, human serum Exp #1” value was 157 nM; the “Functional IC50, C3b deposition, human serum Exp #2” value worked out at 39.9 nM; the “Functional IC50, C3b deposition, human serum Exp #3” value amounted to 24.1 nM; the “Functional IC50, C3b deposition, human serum Exp #4” value was 23.7 nM. Further, in experiment [14], the “Functional IC50, C3b deposition, rat serum Exp #1” value came to 434 nM. In experiment [15], the “Functional IC50, C3b deposition, non-human primate serum Exp #1” value came out at 94.8 nM and the “Functional IC50, C3b deposition, non-human primate serum Exp #2” value was determined as 71.8 nM. Moreover, in the experiment with human MASP-2 [8], the “C3 convertase assay using 1% human serum, IC50 (first experiment)” value was determined as 98.3 nM and the “C3 convertase assay using 1% human serum, IC50 (second experiment)” value amounted to 151 nM. Moreover, the “EC50 (read off the curve)” value in experiment [1] was ~2 nM. This molecule also registered a Kd in experiment [20] of 11.3 nM. The molecule also displayed a Kd with human MASP-2 [2] of 1.9 nM. For the same molecule, the “1% human serum C3 assay IC50” value with human MASP-2 [3] was found to be 38 nM.
